Source: the DeepSol protein solubility set

Assay: soluble on expression in E. coli; label from the status in PepcDB or PDB records

| Sequence | soluble on expression in E. coli |
| --- | --- |
| MSLEEPFEIPPVEDTESVAKVDVRVDGIRDDRLSENVRIYLEAMDKNEADGSERHQYLLRENISKALRVFGYYNSQVYFDLQPRSGKKDLLIASVNVGEPVRIDSTDIEISGEAAEDEEFRKLDKNVPAKGAVLEHEIYDDYKSSLEKLARQRGYFDADFPVHELQVMPSTNQGWWHLVFNSGQRYHYGDISFHGSQIREDYLRNILKIQSGDPYLINDVSGMTSDYSSTNWFQSVLVKPTLHEDSKLVDLAVLLRPRKKNSMELGIGYGSDSGPHTQIGWTRPWINSRGHSVRSNLYISSPKQNFEATYKMPLLKNPLNYYYEFSTGFEHEDDTKTDTQSTAATVAALRFWNHPTGWQYSAGLRARYDNFTQADVDEKTLLIYPTATVSRSRISGGTFADRADTISVTVDLGRKMWASDVNFFRIRANAGWIKTFATNHRFLTRGDIGYLHTDEFNRIPPALRFFAGGDRSVRGYGYKKIAPKDSRNGKLVGGSRLATGTLEYQYQVVQDWWAATFFDAGFAANRFSSDELRYGAGVGVRWASPVGPIKFDIATPVRDKDDSKNIQFYIGLGTEEGHHHHHH | not soluble |
| MGSDKIHHHHHHMEQKLSESEQYLWHFIETHILEIPDYSIVKLSERANVSTATIVRTMKKKGYEGFTSFKHHLKDKENQNINFSALEKVDRGIRTAILKNEEEVTRTINMIEIGNIEDAIQKIKASRRIIIFARGFSELIAQEMMVKFQLAGKYCELHTDPEIIKNISKKLSKKDVALFVSLNGETQELVVAGKNCYDSEIGTILLTASKHSSLMKYIEIPFVGFKSEGSFFPDYEVRSRLPLSILARILLDAYALRTTT | not soluble |
| MAVRFIREDGDEILRKVSKKVDVIDERIKTLLDDMAETMYAANGVGLAAPQVGVLKRVVVIDVGDGLMELINPEIVEQEGEQIDIEGCLSIPGVAGEVKRPARVVVEALNREGEKITVEGKELLAVALCHEIDHLDGILFTDKVIRFIDEDEMERRRENKRRNKIRQNKG | not soluble |
| MASTIAFPAMVKELRLSKNLTMEQLAEEVGKTKSTISKWEKGTRSPKIYEIEEIAKFFGVEPKKMMFGDNPTPTAPQVELIPSTLQKINSTSSQLEHKRQLNVLDYAETQLEQQNTVEEPQATYYTYNYYDHAASAGTGQYLNDVQVETIELPVDYDADFVIPVYGDSMEPKYHSGDYVFVKLSVELTDGDIGVFEYYGDAYIKQLLINDKGAFLHSLNQCGDYPDIPIDRDSDFRIIGEVMGSYRER | not soluble |
| MSIEVRDCNGALLADGDNVSLIKDLKLKGSSTVLKRGTMIRGIRLTDSEDEIEGRTDKIKGLVLRTEFLKKAGS | soluble |
| MTSSPPSFMSYEDRIQEGDTVIVYVTYGQMVPTIVKRGQTLMMKYGALRHEFIIGKRWGQRLSATAGYVYILRPTSDLWTRALPRRTQILYTADCAQILSLLDAKPGSVICESGTGSGSLSHAIALTVAPTGHLYTHDIDETRTHKVLEEFKVHGLGSVTTAVVRNVCTSGFHVENAADGVFLDVPAPWEAIPFAAKSIFRARGGRLVSFSPCLEQVQRACLAMAAAGFVSIETIELVPEQKKIVSQHRQTLEEFEELGDAYPKERKRNVDGTIVEQSSSAIPRITIAIVYPYSQPTHTGYLTHATMLPVAE | not soluble |
| MTFTGLPPEDVPALMTGAVIPHPSVAGRADAYLPSPCIQNHAANLAFLPDGTLSCVWFGGTMEGMRDISIYMSRLPPGSGRWSEPEKMSDDPEKSEQNPLIFNAPDGKTWLLYTSQTSGNQDGSIVKCRISDDGGKTFGPVQILCDSPGTFVRQQIVVNDRGDWLLPIFRCVGLEGQRWSGDADTAAVLISRDGGASWQMRDIPDSIGAVHMNILPLGGCEMIAFYRNRFAETILSSRSADGGETWSPPEPTELPNNNSSIQATVLDNGGIAMVYNHSNATMSDARRQSLYDEIEGDECGENAAVVADAGRKAVWGVPRAPLSLAISRDGGRTFPHRIDLDTGDGFCLSNNSKDSLNREFSYPSVIEGSDGTLHVAYTYYRRAIKYVRLAPRALPLEHHHHHH | soluble |
| MGSDKIHHHHHHMTGRNILTESESDRGRVLFSPAFRRLQQKAQVFSMEPNAAVRSRLTHSFEVSQIGRYIADLLSEKLGIATEQQAGALVNFVETACLMHDIGNPPFGHFGEEAIKKWFEDNGERCLRLSIGRPKPSDGACPDQAKVRDALVDFADFDGNPQGLRIVARLQWNTDEFGLNLTKTSLASFMKYIRMAGGEKSGIFTKKAGYFTTERDLVESVWREFGYELPQRFPLAYIMEAADDIAYCISDLEDSFEKDIVRPDDALSYVEEQYERHEFEDGDPKHVDIRRAIRQMRAKERESGGEFTFTDFRTSLNNVIVNYVADRYVENHSKILDGTLESLIPGNEPPGAILNAIRKFCREHVYTHESVQRVELAGYNAIRGLLEQCSSLLCISAEGFRAARANEKQDAKGQALVLEPKLLRLFPEKYIKVYDYHLKQAGGDEADPFLEWTYRAHLIVDFISGMTDDFAMTTYRTLAGMRL | not soluble |
| GPGSMSTTSSPDEASCDVEKEGKGISPVTRTGKRFAECALMDLPDKYSSAFPYLRGARLFFFDVVSKLNRIGARNKRVVFVTDYTIGVASKRGHVSRCAKVEDISELICDAQTRALGVRMRSRPFAIVPKDFSRWNCFHEMPVDLLLHATSAAQYEALINVLSFVHHTSTHEALLCRSLKQYETWKASLVLAPDGSRVKKAVQYYAIPVTPSERSTDAATLSATRSQETSASLSAVRAPRQVALLSAGDSASRFTSGPDVSATAPKLRHWSSLGASSSFTPSGVGGHRTALGLSPFSLSPSPAPPLVEFSRDIEAVPTSATRRGVNPLLKADRKAPNAS | not soluble |
| MRVRGIYATALVALALKKGYLLSDLSKTMLSRVEVPVSTRPPNITVKHGEESRDEIVIHAFPYEAGERFEADLLEEVGHAAVRRSLLGLRSVVDARAAEGCRAEGPGGVLIIVKGGECPQPGSMVRVTVVRSPPGSDVVEGRVGVELTGLTVRVMHPGSGVRISRHLTSEDAAKALKAVEASGIDLNQFSVHIRSGARLASEGDISDEIRRLAREAERLWREGPGGEPAVLSRGEYLSLVYLPSTAKHVMDGLRTSLYPTVNNHHSLKSWSSEAEGLLTDFAEEGVREGLWGGEAGDLIVRFISSRLVGRTAVVLHRRPDGETIRLGPFRVSSYRPSSGRGGEIVLERTFRSPGVYDGLGLERRPGDRGVTHVYMGDWLTIHEYYDKSGRLLGVYANINTPPEVGFQGLKYLDLLVDVVKRPGEEPETIDQGELEKACRSGLLTDRLCEEAARQAERASGLLQSRYP | not soluble |
| MRGSHHHHHHGMASMTGGQQMGRDLYDDDDKDHPFTEGRSWPSAPDDSKAQAHRIHIDPEIQDGSPTTSRRPSGTGTGPEDGRPSLGSPYGKPPCFPVPHNGSSEATLPAQMSTLHVSPPPSADPAEASRGAGSRVDLGSEVYRMLREPAEPVAAEPKQSGSFRYLQGMLEAGEGGD | soluble |
| MSLKIFGTDGVRGKAGVKLTPMFVMRLGIAAGLYFKKHSQTNKILIGKDTRKSGYMVENALVSALTSIGYNVIQIGPMPTPAIAFLTEDMRCDAGIMISASHNPFEDNGIKFFNSYGYKLKEEEEKAIEEIFHDEELLHSSYKVGESVGSAKRIDDVIGRYIAHLKHSFPKHLNLQSLRIVLDTANGAAYKVAPVVFSELGADVLVINDEPNGCNINDQCGALHPNQLSQEVKKYRADLGFAFDGDADRLVVVDNLGNIVHGDKLLGVLGVYQKSKNALSSQAVVATNMSNLALKEYLKSQDLELKHCAIGDKFVSECMQLNKANFGGEQSGHIIFSDYAKTGDGLVCALQVSALVLESKQVSSVALNPFELYPQSLVNLNVQKKPPLESLKGYSALLKELDKLEIRHLIRYSGTENKLRILLEAKDEKLLESKMQELKEFFEGHLCEGHHHHHH | soluble |
| MTVDHRQWAREAIRIIEADFQRSADTHLIPLETPGLPGVELYFKDESSHPTGSLKHRLARSLFLYALCNGWLRPAAPVIEASSGSTAISEAYFARLLGLPFIAVMPASTSKEKIAQIAFYGGQSHLVEDPTQIYAESERLARESGGHFMDQFTYAERATDWRANNNIAESIFQQMRHEPYPTPTWLISSPGTGGTLATLGRYVRYRQHCTRVLCADAERSVFFDAYVSGDRGLTLDCGSRIEGIGRPRVEASFLPEVIDAMVKVPDAWSLAAMHYLARRLGRRVGGSSGTNLIGALVAARQMVAAGEKGSLVAILCDGGERYATTYYDPVWLARQGYALEPLVEALAACIERGVALPDGLLVAG | not soluble |
| AENDKPQYLSDWWHQSVNVVGSYHTRFGPQIRNDTYLEYEAFAKKDWFDFYGYADAPVFFGGNSDAKGIWNHGSPLFMEIEPRFSIDKLTNTDLSFGPFKEWYFANNYIYDMGRNKDGRQSTWYMGLGTDIDTGLPMSLSMNVYAKYQWQNYGAANENEWDGYRFKIKYFVPITDLWGGQLSYIGFTNFDWGSDLGDDSGNAINGIKTRTNNSIASSHILALNYDHWHYSVVARYWHDGGQWNDDAELNFGNGNFNVRSTGWGGYLVVGYNFHHHHHH | soluble |
| MFSPLECRLAVACKFQDDRYYKLFHQYFDLLAQVHSVVETMDGLWMLRVWRAQKFGPESIKERRERQLFHVTQFSFKRYIVPPNPRIGKAIEEFGKEYLIEINVYDEHRADLVSLNSGNFVAIQNVHAASTPHREIQILHGGGEAYQRGISTVPVDFEVDAFQNFKRKVESVLENVLYDENFIEFQQPEEVTENRVPEEPQLNIHKDPLPSDLPQ | soluble |
| MASVALALWERVLANVVPRQSIAVIGAGVSGLSAAWLLSHRHDVTLYEADNRLGGHANTIIAEGVAVDTGFIVYNEPNYPNLTALFRHIGVETTETDMSFGVSLDGGALEYSSTKLLAQKRNVANPRFIKMLLDVVRFYREGRNIPADLEQGGLCRLDDYLRRQGFGRAFQEDHLLPQAAAIWSASMRDIREFPAAALLRFFDNHGLMLPIDKRPIWRTVVGGSARYVEKLAAGVSGPILTGRPVKAIHRGPDGVRIEDATGETRAFDHVVIGAHADQALSMLAAPSAEERELLGAFRYSRNRAVLHSDPALMPRRRGAWASWNHVGRRGEDGEGGVTYWMNILQPLGVERPYFLSLNPMQDPAGLMHDQVYEHPLFDGPAMLAQRRLWSLQGRRRTWFCGAYFGSGFHEDGLQAGLAVAEQLGGVRRPWLVPNPSGRIVLDVADQAADRELVALEHHHHHH | not soluble |
| TSKKKRQRGSRTHGGGSHKNRRGAGHRGGRGDAGRDKHEFHNHEPLGKSGFKRPQKVQEEAATIDVREIDENVTLLAADDVAEVEDGGFRVDVRDVVEEADDADYVKVLGAGQVRHELTLIADDFSEGAREKVEGAGGSVELTDLGEERQAEAEETEDADADEE | soluble |
| MSLEKNKEYIFDIISQGYEGEGIAKIDNKYPIFIEGALKGEKVKVRIVKVNKNFAYGKLMEVLEASEERVNPPCAIYKRCGGCKLQHASYKAQLDFKWDRVKDCVSKIGKLDPSIVKYPLGMEEPWRYRNKVQLPIGLINGEVKIGFFAPRSHDIIDMESCLIQDEIGDKVVKLTREWIEKFNIRPYNVDGEYDEKGIVRHIMIRRGFTTNEVMVVLVTNGEKLPHKEEFVDLMVKNIPGIKSVIQNINSKKTNVILGLESKTLWGEDTISDYIGDFRFNISPLSFFQVNPTQTEVLYGKALEYANLTGNEEVFDAYCGTGTITLFLSQKAKKVYGVEIIPQAIDNAWINAKENKVENVEFFVGESEVVIPDLINKGVKADVVVVDPPRKGCDKKLLDAITNINAKKIVYVSCDPSTLGRDLAILEENGYKTLEVQPVDMFPNTSHVENVAKLIKKEGHHHHHH | soluble |
| MSQTAAPLAQLNAMDTAQFVRTLGGIYEHSPWVAEQAAGQRPFASADALAAAMRRAVDGAGEGPQLKLVRAHPELAGKAAVRGELTAESTREQASAGLDQCSPEEFARLQALNARYNDKFGFPFILAVRGYDRHGIIDVFARRLENDRATELRASLEQIHRIAGFRLHDLISGKLAAALEHHHHHH | not soluble |
| SLPIASTATQMGSNKTRIFARQPAKAPPPLAWLSRPRDPRATAIAAAGQQSSRRVSKRELESHGSATDAWTAIHGVVYDITAYFRFHPGGAEILFIEAAGKDSTAVFDEMHPWVNVAWLLKDYRIGLYAPESEDDGGDDDDDDRTMTSPE | soluble |
